Data as given in US20180022819A1, “COMPOSITIONS AND METHODS FOR COMBINATION THERAPY WITH PROSTATE-SPECIFIC MEMBRANE ANTIGEN BINDING PROTEINS” (APTEVO RESEARCH AND DEVELOPMENT LLC, priority 2015, published 2018).

How the values were obtained:
LNCaP cells [1] = assay: Effect of enzalutamide on redirected T-cell cytotoxicity in LNCaP cells expressing GFP (Example 1); assay type: cell-based, human; parameters: reduction of live target cells: dose or concentration left out as unconfirmed; details: TSC249 titration with T-cells and […] nM enzalutamide, compared to TSC249 and T-cells alone
Description: A titration of the anti-PSMA bispecific molecule TSC249 (protein sequence of SEQ ID NO: 78 in Table 3) was added to all sets of LNCaP cells in the amounts shown on the x-axis. T-cells and DMSO were added to the first set of LNCaP cells (leftmost set of bars). […] No T-cells and DMSO were added to the third set of LNCaP cells (set of bars second from the right). […] LNCaP cell growth (number of live cells) was measured by overall fluorescence and expressed as a fraction of live cells relative to the cells untreated with TSC249 on the y-axis.
LNCaP cells expressing GFP were cultured with donor T-cells at a 3:1 ratio of T-cells to LNCaP target cells for 4 days. […] DMSO alone was added to other samples. A titration of the anti-PSMA bispecific molecule TSC249 (protein sequence of SEQ ID NO: 78 in Table 3) was added to the cell cultures. LNCaP cell growth (number of live cells) was monitored by overall fluorescence.

22Rv1 cells = assay: Chromium-51 release assay of redirected T-cell cytotoxicity against 22Rv1 cells (Example 5); assay type: cell-based, human; details: enzalutamide-treated 22Rv1 cells relative to untreated 22Rv1 cells
Description: FIG. 3 (top panel) is a graph showing the results of a chromium-51 release assay measuring the effectiveness of the anti-PSMA bispecific molecule TSC249 at inducing redirected T-cell cytotoxicity in 4 hours against enzalutamide-treated and untreated prostate cancer 22Rv1 cells. Percent specific lysis relative to a total lysis control is shown on the y-axis. Concentration (pM) of the anti-PSMA bispecific molecule TSC249 is shown on the x-axis.
To compare the sensitivity of enzalutamide-treated and untreated 22Rv1 prostate cancer cells to target-dependent T-cell cytotoxicity, a bispecific binding molecule targeting PSMA and CD3 was tested in a chromium (^51Cr) release assay using donor T-cells as effector cells. [See, e.g., US 2014/0161800 A1, which describes multispecific binding molecules that bind to prostate-specific membrane antigen (PSMA) and CD3.]
Cytotoxicity was assessed by a ^51Cr release assay. […]
Plates were incubated for 4 hours, spun at 225×g for 3 minutes, and 25 μL of supernatant was transferred from each well to the corresponding well of a 96-well LUMAPLATE® sample plate (Perkin Elmer). Sample plates were allowed to air dry in a chemical safety hood for 18 hours, and then radioactivity was read on a Topcount scintillation counter using a standard protocol. […]

LNCaP cells [2] = assay: Growth inhibition of LNCaP-GFP cells with primary human T-cells, 4 days, with combination index analysis (Example 6); assay type: cell-based
Description: Additional procedures are described in Example 6. Percentage of live cells relative to an untreated control is shown on the y-axis.
Combination indices can indicate additive effects (CI=1), synergism (CI<1), or antagonism (CI>1).
Overall fluorescent signal from GFP enabled the quantitation of living LNCaP target cells in isolation from T-cells. […] TSC249 was added to have final concentrations of 125, 62.5, 31.25, 15.6, 7.8, 3.9, or 1.95 pM, or none. T-cells from several donors were used in replicate experiments, added at a ratio of 45,000 T-cells to 15,000 LNCaP cells per well.
After 4 days culture at 37° C. in 5% CO2, media was aspirated from wells and […] of 0.4% NP-40 was added to each well. Fluorescent signal from GFP in LNCaP cells adherent in wells was detected by a Spectramax plate reader, reading from the bottom of the wells. […]
The combination index theorem developed by Chou and Talalay was used to determine the interaction between the two compounds in their anti-cancer activity (see Chou, Cancer Res. 2010 Jan. 15; 70(2):440-6; Chou, Pharmacol Rev. 2006 September; 58(3):621-81). For each plate, relative fluorescence units (RFU) of all wells were normalized to the RFU of the well containing cells only, i.e., the proportion of living LNCaP cells in each well was expressed in relation to untreated LNCaP cells. […] Mean values were calculated from three replicates. […]

PSMA = assay: Binding of FITC-labeled 107-1A4 to 22Rv1 cells by flow cytometry (Example 4); parameters: species or system human; details: 22Rv1 cells that were or were not incubated with enzalutamide
Description: Mean fluorescence intensity (MFI) of bound molecules on live cells is shown on the y-axis. Concentration (nM) of the anti-PSMA monoclonal antibody 107-1A4 labeled with FITC is shown on the x-axis.
22Rv1 cells (PSMA+ at low level) were obtained from ATCC (Manassas, Va.) and cultured according to the ATCC protocol in RPMI-1640 media plus 10% FBS. […] All four cultures were harvested, stained for PSMA with FITC-labeled anti-PSMA monoclonal antibody 107-1A4 (Acris), and PSMA expression assayed by standard flow cytometry procedures. 22Rv1 cells were harvested with trypsin, and placed into FACS buffer (PBS+0.5% BSA [Equitech]+2 mM EDTA [Life Technologies]) at 1×10e6 per ml. FITC-107-1A4 was prepared at 36 nM in FACS buffer, and serially diluted 1:3, before adding 50 μl to 2×10e5 22Rv1 cells which had been pelleted in a 96 well plate. After 30 minute incubation on ice, cells were washed 3 times in FACS buffer, resuspended in FACS buffer, and data acquired on a BD LSRII flow cytometer. The sample files were analyzed using FlowJo software; the median fluorescence intensity (MFI) of the live population of 22Rv1 cells in each well was calculated after gating on live cells (forward vs side scatter). Median fluorescence intensities were fit to a 4-parameter logistic curve and graphed as concentration vs. MFI using GraphPad PRISM® software.

B1: TSC249: anti-PSMA bispecific molecule targeting PSMA and CD3; protein sequence of SEQ ID NO: 78 (protein)
chain: DIQMTQSPSAMSASVGDRVTITCRASKSISKYLAWFQQKPGKVPKLRIHSGSTLQSGVPSRFSGSGSGTEFTLTISSLQPEDFATYYCQQHIEYPWTFGQGTKVEIKRGGGGSGGGGSGGGGSQVQLVQSGAEVKKPGASVKVSCKASGYTFTDYYMHWVRQAPGQGLEWMGYFNPYNDYTRYAQKFQGRVTMTRDTSISTAYMELSSLRSDDTAVYYCARSDGYYDAMDYWGQGTTVTVSSSEPKSSDKTHTCPPCPAPEAAGAPSVFLFPPKPKDTLMISRTPEVTCVVVDVSHEDPEVKFNWYVDGVEVHNAKTKPREEQYNSTYRVVSVLTVLHQDWLNGKAYACAVSNKALPAPIEKTISKAKGQPREPQVYTLPPSRDELTKNQVSLTCLVKGFYPSDIAVEWESNGQPENNYKTTPPVLDSDGSFFLYSKLTVDKSRWQQGNVFSCSVMHEALHNHYTQKSLSLSPGQRHNNSSLNTGTQMAGHSPNSQVQLVESGGGVVQPGRSLRLSCKASGYTFTRSTMHWVRQAPGQGLEWIGYINPSSAYTNYNQKFKDRFTISADKSKSTAFLQMDSLRPEDTGVYFCARPQVHYDYNGFPYWGQGTPVTVSSGGGGSGGGGSGGGGSAQDIQMTQSPSSLSASVGDRVTMTCSASSSVSYMNWYQQKPGKAPKRWIYDSSKLASGVPARFSGSGSGTDYTLTISSLQPEDFATYYCQQWSRNPPTFGGGTKLQITSSS
modifications: Humanized TSC249 Scorpion (huVL-VH#2 107-1A4 scFv-Fc-DRA222 scFv)
- reduction of live target cells (LNCaP cells [1]): higher dose-dependent reduction of live target cells
- specific lysis from T-cell directed cytotoxicity (22Rv1 cells): increase in specific lysis
- interaction by combination index (Chou and Talalay) (LNCaP cells [2]; 1.95-31.25 pM TSC249 at all enzalutamide concentrations used (39, 156, 625 nM)): Synergy
- live cell signal when combined with the other drug (LNCaP cells [2]; enzalutamide plus TSC249 over a wide range of concentrations, T-cells, 4 days): further decrease in live cell signal

B2: FITC-107-1A4: FITC-labeled anti-PSMA monoclonal antibody 107-1A4 (Acris) (antibody, V domains shown)
VH: EIQLQQSGPELVKPGASVKMSCKASGYTFTDYYMHWVKQNNGESLEWIGYFNPYNDYTRYNQNFNGKATLTVDKSSSTAYMQLNSLTSEDSAFYYCARSDGYYDAMDYWGQGTSVTVSS
VL: DVQITQSPSYLAASPGETITINCRASKSISKYLAWYQEKPGKANKLLIHSGSTLQSGIPSRFSGSGSGTDFTLTISSLEPEDFAMYYCQQHIEYPWTFGGGTKLEIKRA
- ECso values determined from binding curves (PSMA): no significant differences
